Assay [1] concerns the target Human DLL3 (human) (UniProt Q9NYJ7). Put plainly: cell-based or functional assay.
In assay [2] the target is CD3 (human). Put plainly: cell-based or functional assay.

Chain of Human DLL3 (human) (Q9NYJ7 27-618 limits assumed): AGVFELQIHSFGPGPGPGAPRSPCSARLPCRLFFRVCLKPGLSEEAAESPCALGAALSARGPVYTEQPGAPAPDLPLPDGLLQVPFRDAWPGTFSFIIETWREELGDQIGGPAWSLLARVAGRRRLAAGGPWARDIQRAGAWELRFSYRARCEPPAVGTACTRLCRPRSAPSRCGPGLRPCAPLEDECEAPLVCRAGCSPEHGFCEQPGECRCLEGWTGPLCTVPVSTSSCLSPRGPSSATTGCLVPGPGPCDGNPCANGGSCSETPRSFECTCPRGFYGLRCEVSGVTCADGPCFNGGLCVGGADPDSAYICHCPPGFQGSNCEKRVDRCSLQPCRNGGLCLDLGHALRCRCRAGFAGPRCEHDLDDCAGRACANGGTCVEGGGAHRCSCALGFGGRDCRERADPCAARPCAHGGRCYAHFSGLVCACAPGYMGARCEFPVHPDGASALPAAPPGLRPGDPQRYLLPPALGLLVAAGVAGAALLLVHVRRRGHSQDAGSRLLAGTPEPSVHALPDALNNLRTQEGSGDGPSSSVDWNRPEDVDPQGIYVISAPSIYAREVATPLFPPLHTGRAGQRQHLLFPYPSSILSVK

For the substance AMG 757 (bispecific antibody), in assay [1], the EC50 of AMG 757-mediated cell killing in SHP-77 cells stood at 2.8 ng/mL, the EC90 of AMG 757-mediated cell killing in SHP-77 cells worked out at 5.7 ng/mL and the in vitro EC90 for AMG 757-mediated cell killing was 5.2 ng/mL. Also, the EC90 of AMG 757-mediated CD69 upregulation in assay [2] came to 4.6 ng/mL.

The record behind these values is patent US20230174643A1.
